Experiment: yeast display, Sf9 membrane polyspecificity reagent, FACS + sequencing; frameworks hold sequencing errors
In short: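 A nanobody's polyreactivity label depends on the gate it was sorted from. Yeast display cells were stained with 10% biotinylated, detergent-solubilized Sf9 membrane reagent for 1 hour at 4 °C, enriched on streptavidin microbeads and sorted by FACS. The low and high (top ~1%) gates were set on anti-HA fluorescence for expression and streptavidin fluorescence for reagent binding.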

Row | Sequence | polyreactivity (PSR sort gate)
1 | QVQLVESGGGLVQAGGSLRLSCAASGMIFRRYAMGWYRQAPGKERELVAAITSGGSTYYADSVKGRFTISRDNAKKTVYLQMNSLKAEDTAVYSCAAVFYYATYSKKFEYWGQGTQVTVSS | high polyreactivity
2 | QVQLVESGGGLVQAGGSLRLSCAASGMTFTYYAMGWYRQAPGKERELVAAISWSDGSTYYADSVKGRFTISRDNAKNTVYLQMNSLKPEDTAVYYCAARYGGAISQAKYYYWGQGTQVTVSS | high polyreactivity
3 | QVQLVESGGGLVQAGGSLRLSCAASGNGLGWYRQAPGKERELVAAITRRGGSTYYADSVKGRFTISRDNAKNTVYLQMNSLKPEDTAVYYCAADNPSYNLWYGYWGQGTQVTVSS | low polyreactivity
4 | QVQLVESGGGLVQAGGSLRLSCAASGNHLRSLCLGWYRQAPGKERELVAAITSSGASTYYADSVKGRFTISRDNAKNTVYLQMNSLKPEDTAVYYCAAYLFRRYDYWGQGTQVTVSS | low polyreactivity
5 | QVQLVESGGGLVQAGGSLRLSCAASGNICRINGMGWYRQAPGKERELVASITRSGSTYYADSVKGRFTISRDNAKNTVYLQMNSLKPEDTAVYYCNADGWYWQAQGYDYWGQGTQVTVSS | low polyreactivity
6 | QVQLVESGGGLVQAGGSLRLSCAASGNIFAINAMGWYRQPPGKERELVAAISSRGGSTTYADSVKGRFTISRDIAKNTVYLQMNSLKPEDTAVYDCAADFVRDRFFRYDYWGQGTQVTVSS | high polyreactivity
7 | QVQLVESGGGLVQAGGSLRLSCAASGNIFARYAMGWYRQATGKERDLVSAISRSGGSTYYADSVKGRFTISRDNAKNSVYLQMKCLKPEDTAVYYCNAKSYGVLYWFAYDYWGQGTQVTVSS | high polyreactivity
8 | QVQLVESGGGLVQAGGSLRLSCAASGNIFATYAMGWYRQAPGKERELVAAIRSGGNTNYADSVKGRFTISRDNAKNTVYLQMNSLKPEDTAVYYCNAYKIFYGYIRYNYWGQGTQVTVSS | high polyreactivity
9 | QVQLVESGGGLVQAGGSLRLSCAASGNIFAWYAMGGYRQAPGKERELVADISSRGGSTSYADSVKGRFTISRDNAKKTVYLQMNSLKPEDTAVYYCAASYYYPFEYYYWGQGTQVTVSS | low polyreactivity
10 | QVQLVESGGGLVQAGGSLRLSCAASGNIFAWYAMGWYRQAPGKERELDADISSRGGSTYYADSVKGRFTISRDNAKNTVYLQMNSLKPEDTAVYYCAAVWYWTQDYDYWGQGTQVTVSS | low polyreactivity
11 | QVQLVESGGGLVQAGGSLRLSCAASGNIFDEYTMGWYRQAPWKERELVAAINSGGSTDYADSVKGRFTISRDNAKNTVYLQMNSLKPEDTAVYYCARDVWPTKIQQQPGYGRGEYWGQGTQVTVSS | low polyreactivity
12 | QVQLVESGGGLVQAGGSLRLSCAASGNIFDLYAMGWYRQAPGKERELVAAITRSSSRTYYADSVKGRFTISRDNAKNTVYLQMNSLKPEDTAVYYCRAKQVNRFDYWGQGTQVTVSS | high polyreactivity
13 | QVQLVESGGGLVQAGGSLRLSCAASGNIFESYGMGWYRQAPGKERELVATINTSSGSTYYADSVKGRFTISRDNAKNTVYLQMNILKPEDTAVYYCAAEWYPYPWGYGYWGQGTQVTVSS | low polyreactivity
14 | QVQLVESGGGLVQAGGSLRLSCAASGNIFESYGMGWYRQAPGKERELVATINTSSGSTYYADSVKGRFTISRDNAKNTVYLQMNSLKPEDTAVYYCAARFDSFWVEYDYWGQGTQVTVSS | low polyreactivity
15 | QVQLVESGGGLVQAGGSLRLSCAASGNIFESYGMGWYRQAPGKERELVATINTSSGSTYYADSVKGRFTISRDNAKNTVYLQMNSLKPEDTAVYYCAVEGDYWYVSMYYWGQGTQVTVSS | low polyreactivity
16 | QVQLVESGGGLVQAGGSLRLSCAASGNIFFRNARGWYRQAPGKERELVAAITWSGGSTYYADSVKGRFTISRDNAKNTVFLQMNSLKPEDTAVYYCAADAGQYFTYSGDDNLDYWGQGTQVTVSS | low polyreactivity
17 | QVQLVESGGGLVQAGGSLRLSCAASGNIFFSNAMGWYRQAPGKERELGASISQSGGSTYYADAVKGRFTISRDNAKNTVYLQMNSLKPEDTAVYYCAATQVRRGPAWGRDYWGQGTQETVSS | low polyreactivity
18 | QVQLVESGGGLVQAGGSLRLSCAASGNIFFTYAMGWYIQEPGKERELVAAITSGGRTYYADSVKGRFTISRDNAKNTLHLQMNSLKPEDTAVYYCAAYYKYLGYGYWGQGTQVTVSS | high polyreactivity
19 | QVQLVESGGGLVQAGGSLRLSCAASGNIFGKNVMGWYRQAPGKEREFVAAITSRGGRTNYADSVKGRFTISRDNAKNTVYLQMNSLKPEDTAVYYCAKDKNYPSGYGYWGQGTQVTVSS | high polyreactivity
20 | QVQLVESGGGLVQAGGSLRLSCAASGNIFGLNAMGWYTQAPGKEREFVAAITKTGGSTYYADSVKGRFTISRDNAKNTVYLQMNSLKPEDTAVYYCAARGLPRGYPYEYGYWGQVTQVTVSS | high polyreactivity
21 | QVQLVESGGGLVQAGGSLRLSCAASGNIFGQYAMGWYRQAPGKEREFVAAITWSGGSTYYADSVKGRFTISRDNAKNTVYLQMNSLKPEDTAVYYCAADYGKTHRYDYDYWGQGTQVTVSS | low polyreactivity

Row | Sequence | polyreactivity (PSR sort gate)
22 | QVQLVESGGGLVQAGGSLRLSCAASGNIFGTYAMGWSRQAPRKERELVATISNDDRTNYADSVKGRFTISRDNAKNTVYFQMNSLKPADTAVYYCAVEYPSIAYRKSSKTFDYWGQGTQVTVSS | low polyreactivity
23 | QVQLVESGGGLVQAGGSLRLSCAASGNIFGVYAMGWYRQAPGKERELVAAIRYSTVSTYYADSVKGRFTISRDKAKNTVYLQMNSLKPQDTAVYNSAAHRYYWSLYGYDYWGHGTQVTVSS | high polyreactivity
24 | QVQLVESGGGLVQAGGSLRLSCAASGNIFGVYTMGWYRQAPGKERELVAAISDGGSTYYADSVKVRFTISRDNAKNTVYLQMNSLKPEDTAVYYCAASKIGYWGDYFRYYYWGQGTQVTVSS | low polyreactivity
25 | QVQLVESGGGLVQAGGSLRLSCAASGNIFGYYVMGWYRQAPGKERELVAAITWSAGTTNYADSVKGRFTISRDNAKNTVYLQMNSLKPEDTAVYYCAVTWWYQDYDLTWYLYDYWGQGTQVTVSS | low polyreactivity
26 | QVQLVESGGGLVQAGGSLRLSCAASGNIFHYYPMGWYRQAPGKERELVATISWRGDGTNYADSVKGRFTISRDNEKNTVYLQMISLKPEDTAVYYCAARGVWPDYDYWGQGTQVTVSS | low polyreactivity
27 | QVQLVESGGGLVQAGGSLRLSCAASGNIFKGYAMGWYRQAPGKERALVAAISKSGGSTYDADSVKGRFTISRDNAKNTVYLQMNSLKPDDTAVYYCNARRKYGGGQTINGYDYWGQGTQVTVSS | high polyreactivity
28 | QVQLVESGGGLVQAGGSLRLSCAASGNIFKVNTMGWYRQAPGKERELVAAINRSGGRPYYADSVKGSFTISRDNAKNTVYLQMNSLKPEDTAVYYCATRVHKSTHGYDYWGQGTQVTVSS | high polyreactivity
29 | QVQLVESGGGLVQAGGSLRLSCAASGNIFLDYAMGWYRQAPGKERELVAANTSRVDDTYYADSVKGRFTISLDNAKNTVYLQMTSLKPEFTAVDYCAADYSVTLLIGGYYWFYAFDYWGQGTQVTVSS | low polyreactivity
30 | QVQLVESGGGLVQAGGSLRLSCAASGNIFLYYAMGWYRQAPGKEMELVAAISWSGSSTYYADSVKGRFTISRDNAKNTVYLQMNSLKPEDTAVYYCNKRATRSRRRGYWGQGTQVTVSS | low polyreactivity
31 | QVQLVESGGGLVQAGGSLRLSCAASGNIFLYYAMGWYRQAPGKERELDADIDSSGASTYYADSVKGRFTISRDNAKNNVYLQMNSLKPEDTAVYYCAAEFHWWYAGYDYGYWGQGTQVTVSS | low polyreactivity
32 | QVQLVESGGGLVQAGGSLRLSCAASGNIFLYYAMGWYRQAPGKERELVADIDSSGASTYYADSVKGRFTISRDNAKNTVYLEMNSLKPEDTAVYYCAAEFHWWYAGYDYGYWGQGTQVTVSS | low polyreactivity
33 | QVQLVESGGGLVQAGGSLRLSCAASGNIFLYYAMGWYRQAPGKERELVADIDSSGASTYYADSVKGRFTISRDNAKNTVYLQMNSLKPEDTAVYYCAARGRKNQRRYGYWGQGTQVTVSS | low polyreactivity
34 | QVQLVESGGGLVQAGGSLRLSCAASGNIFPAYAMGWYRQAPGKERELVATISRRGGGTYYADSVKGRFTISRDNAKNTVYLQMNSLKPEDTAVYYCNVAGWTSAYDYWGQGTQVTVSS | low polyreactivity
35 | QVQLVESGGGLVQAGGSLRLSCAASGNIFRVYDMGWYRQAPGKERELVAVIRWSSGRTYYADSVKGRFTISRDNAKNTVYLQMNSLKPEDTAVYYCATKLWRVPRNSHYDSYEYWGQGTQVTVSS | high polyreactivity
36 | QVQLVESGGGLVQAGGSLRLSCAASGNIFRYYAMGWYRQAPGKERELVARISTGSSTYYADSVKGRFTISRDNAKNTVYLQMNSLKPEDTAVYYCAAANYRYRVPWFYYWGQGTQVTVSS | high polyreactivity
37 | QVQLVESGGGLVQAGGSLRLSCAASGNIFRYYVMGWYRQAPGKEREFVAAITSSGGSTYYADSVKGRFTISRDNAKNTVYLQMNSLKPEDTAVYYCAKDYWDPGWAEYDYWGQGTQVTVSS | low polyreactivity
38 | QVQLVESGGGLVQAGGSLRLSCAASGNIFSYYAMGLYRPAPGKERELVAAIDWNGGTTYYADSVKGRFTISRDNAKNTVYLQMNSLKPEDTAVYYCAAAWYWYWFLFEGAPYDYWGQGTQVTVSS | high polyreactivity
39 | QVQLVESGGGLVQAGGSLRLSCAASGNIFSYYAMGWYRQATGIERELVAAISGRGTRTYYADSVKGRFSISRDNAMNTVYLQMNSLNPEDTAVYYCATEVRRLNEFDYWGQGTQVTVSS | high polyreactivity
40 | QVQLVESGGGLVQAGGSLRLSCAASGNIFTNNAMGWYRQAPGKERELVAAISSSGGRTFYADSVKGRFTITRDNAKNTVNLQMNSLKPEDTSVYYCNKVASTRVSYLDMEYWGQGTQVTVSS | high polyreactivity
41 | QVQLVESGGGLVQAGGSLRLSCAASGNIFTPYTMGWYRQAPGKERELVASINNAGTTKYADSVKGRFTISRDNAKNTVYLQMNSLKPEDTAVYFCAAQRRHALSSYPKHYYWGQGTQVTVSS | low polyreactivity
